Earlier results on five substances are cited in article PMC5810417.

Read-outs that look alike come from different tables or passages of the source. Where only a bound is given, the exact number is not on record here.

Data set [1] concerns the target Prdx6 (Homo sapiens) (UniProt P30041).
Data set [2] shares this target. Put plainly: PLA2 activity inhibition.
For data set [3] the target is unchanged. The source holds these as a separate data set.
For data set [4] the target is unchanged. This is another data set of the same source.

As to Prdx6 (from UniProt P30041), in data set [1], the Kd was < 20 nM. On to SP-A (from UniProt Q8IWL2), for which the Ki in data set [2] was 130 nM. Consider p67phox (from UniProt P19878), for which the inhibition constant Ki in data set [2] was 65 nM. Regarding πGST1-1A and C (from UniProt P09211), in data set [3], the Kd was 50 nM. For πGST1-1B and D (from UniProt P09211), the Kd in data set [4] was 100 nM.
